Measured values: paper PMC9482650, “Quantitative fragmentomics allow affinity mapping of interactomes” (Nature Communications, 2022)

T1: NHERF3_1, Q5T2W1
T1 sequence (Q5T2W1 4-100, limits assumed, looked up): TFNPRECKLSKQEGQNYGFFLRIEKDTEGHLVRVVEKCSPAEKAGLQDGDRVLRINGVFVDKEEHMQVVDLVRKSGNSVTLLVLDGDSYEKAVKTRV

T2: SNTG1, Q9NSN8
T2 sequence (Q9NSN8 52-150, limits assumed, looked up): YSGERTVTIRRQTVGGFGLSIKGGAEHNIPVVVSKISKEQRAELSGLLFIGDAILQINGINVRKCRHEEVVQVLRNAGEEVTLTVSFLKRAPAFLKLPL

T3: APBA2_1, Q99767
T3 sequence (Q99767 563-664, limits assumed, looked up): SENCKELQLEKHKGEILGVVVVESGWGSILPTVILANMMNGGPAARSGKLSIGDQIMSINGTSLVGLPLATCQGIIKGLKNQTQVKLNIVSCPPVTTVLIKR

T4: RHPN1, Q8TCX5
T4 sequence (Q8TCX5 508-602, limits assumed, looked up): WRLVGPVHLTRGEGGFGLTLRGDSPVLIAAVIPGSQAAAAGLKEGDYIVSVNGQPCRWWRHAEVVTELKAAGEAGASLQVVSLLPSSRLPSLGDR

T5: ARHGEF11, O15085
T5 sequence (O15085 42-136, limits assumed, looked up): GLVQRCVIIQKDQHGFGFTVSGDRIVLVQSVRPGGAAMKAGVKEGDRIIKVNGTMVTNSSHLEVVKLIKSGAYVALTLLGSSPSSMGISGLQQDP

T6: NHERF3_3, Q5T2W1
T6 sequence (Q5T2W1 238-333, limits assumed, looked up): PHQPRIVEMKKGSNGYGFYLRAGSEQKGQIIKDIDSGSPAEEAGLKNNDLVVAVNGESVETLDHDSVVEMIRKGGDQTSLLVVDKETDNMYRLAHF

T7: GRIP1_2, Q9Y3R0
T7 sequence (Q9Y3R0 145-248, limits assumed, looked up): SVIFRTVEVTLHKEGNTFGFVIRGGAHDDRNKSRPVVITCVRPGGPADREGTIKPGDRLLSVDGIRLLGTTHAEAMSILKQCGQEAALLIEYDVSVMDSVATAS

T8: SYNJ2BP, P57105
T8 sequence (P57105 8-110, limits assumed, looked up): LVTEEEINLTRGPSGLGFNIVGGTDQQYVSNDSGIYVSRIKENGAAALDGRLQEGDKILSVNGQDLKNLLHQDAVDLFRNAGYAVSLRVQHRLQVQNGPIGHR

T9: TJP3_3, O95049
T9 sequence (O95049 375-456, limits assumed, looked up): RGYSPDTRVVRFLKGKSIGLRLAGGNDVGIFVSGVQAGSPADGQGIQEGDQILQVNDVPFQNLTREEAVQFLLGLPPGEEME

T10: RADIL, Q96JH8
T10 sequence (Q96JH8 971-1071, limits assumed, looked up): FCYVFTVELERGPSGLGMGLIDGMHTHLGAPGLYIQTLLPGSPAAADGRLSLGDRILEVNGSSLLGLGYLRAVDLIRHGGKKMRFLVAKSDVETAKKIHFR

T11: LIN7C, Q9NUP9
T11 sequence (Q9NUP9 88-185, limits assumed, looked up): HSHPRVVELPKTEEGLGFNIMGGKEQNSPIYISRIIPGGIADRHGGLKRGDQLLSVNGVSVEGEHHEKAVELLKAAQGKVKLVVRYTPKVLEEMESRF

T12: GRIP1_3, Q9Y3R0
T12 sequence (Q9Y3R0 247-346, limits assumed, looked up): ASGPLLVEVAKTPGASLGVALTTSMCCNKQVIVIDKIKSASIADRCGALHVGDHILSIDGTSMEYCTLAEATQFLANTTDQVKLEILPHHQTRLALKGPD


Experiments:
Assay in all cases: holdup assay
Design in all cases: key: below the threshold = too weak to quantify, mostly under pKd 3.1 to 4
Details in all cases: plain residues with an end cap or a label only (N-terminal biotin on a linker: ado-ado)
[1] = molecular target: T1, NHERF3_1, Q5T2W1
[2] = molecular target: PDZRN4_1, Q6ZMN7
[3] = molecular target: T2, SNTG1, Q9NSN8
[4] = molecular target: T3, APBA2_1, Q99767
[5] = molecular target: DLG2_2, Q15700
[6] = molecular target: ARHGEF12, Q9NZN5-2
[7] = molecular target: CASK, O14936
[8] = molecular target: T4, RHPN1, Q8TCX5
[9] = molecular target: T5, ARHGEF11, O15085
[10] = molecular target: T6, NHERF3_3, Q5T2W1
[11] = molecular target: MAGI1_1, Q96QZ7
[12] = molecular target: GRIP2_6, Q9C0E4
[13] = molecular target: DLG2_3, Q15700
[14] = molecular target: GRID2IP_1, A4D2P6
[15] = molecular target: T7, GRIP1_2, Q9Y3R0
[16] = molecular target: T8, SYNJ2BP, P57105
[17] = molecular target: LNX1_2, Q8TBB1
[18] = molecular target: T9, TJP3_3, O95049
[19] = molecular target: HTRA1, Q92743
[20] = molecular target: Inadl_2, Q8NI35
[21] = molecular target: T10, RADIL, Q96JH8
[22] = molecular target: T11, LIN7C, Q9NUP9
[23] = molecular target: Inadl_10, Q8NI35
[24] = molecular target: T12, GRIP1_3, Q9Y3R0
[25] = molecular target: IL16_4, Q14005
[26] = molecular target: TJP1_2, Q07157
Chain of TJP1_2, Q07157 (Q07157 181-274): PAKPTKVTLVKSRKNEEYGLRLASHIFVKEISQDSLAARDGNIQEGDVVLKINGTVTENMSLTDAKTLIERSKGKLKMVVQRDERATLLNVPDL

Chain of GRID2IP_1, A4D2P6 (A4D2P6 1-87): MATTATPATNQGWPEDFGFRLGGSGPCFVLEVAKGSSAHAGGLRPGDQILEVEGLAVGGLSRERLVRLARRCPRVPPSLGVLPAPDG
Chain of LNX1_2, Q8TBB1 (Q8TBB1 371-470): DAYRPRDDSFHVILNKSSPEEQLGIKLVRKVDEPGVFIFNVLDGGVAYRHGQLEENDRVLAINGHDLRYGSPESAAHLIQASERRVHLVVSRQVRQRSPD
Chain of HTRA1, Q92743 (Q92743 360-477): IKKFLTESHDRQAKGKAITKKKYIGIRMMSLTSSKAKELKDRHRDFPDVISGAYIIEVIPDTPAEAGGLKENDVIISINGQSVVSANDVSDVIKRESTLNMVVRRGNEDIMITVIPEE
Chain of CASK, O14936 (O14936 487-570): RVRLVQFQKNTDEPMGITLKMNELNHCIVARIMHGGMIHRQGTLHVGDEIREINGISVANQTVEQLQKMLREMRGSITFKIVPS
Chain of MAGI1_1, Q96QZ7 (Q96QZ7 1-106): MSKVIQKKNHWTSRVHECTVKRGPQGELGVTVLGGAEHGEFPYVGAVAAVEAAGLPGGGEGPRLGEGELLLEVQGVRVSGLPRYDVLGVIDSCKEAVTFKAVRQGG
Chain of Inadl_2, Q8NI35 (Q8NI35 238-335): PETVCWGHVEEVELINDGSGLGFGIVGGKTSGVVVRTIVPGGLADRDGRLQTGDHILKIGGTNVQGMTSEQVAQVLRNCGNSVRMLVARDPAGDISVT
Chain of IL16_4, Q14005 (Q14005 1229-1329): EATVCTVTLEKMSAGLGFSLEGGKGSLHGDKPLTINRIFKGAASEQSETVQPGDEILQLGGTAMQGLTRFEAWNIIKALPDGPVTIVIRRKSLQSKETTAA
Chain of Inadl_10, Q8NI35 (Q8NI35 1673-1763): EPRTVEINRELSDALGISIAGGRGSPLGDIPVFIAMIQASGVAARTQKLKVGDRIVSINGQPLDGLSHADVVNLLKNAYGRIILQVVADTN
Chain of ARHGEF12, Q9NZN5-2 (Q9NZN5 other isoform, or with tags, fused parts or gaps): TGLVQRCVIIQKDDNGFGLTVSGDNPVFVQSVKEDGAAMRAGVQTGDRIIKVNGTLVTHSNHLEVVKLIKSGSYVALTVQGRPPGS
Chain of PDZRN4_1, Q6ZMN7 (Q6ZMN7 213-318): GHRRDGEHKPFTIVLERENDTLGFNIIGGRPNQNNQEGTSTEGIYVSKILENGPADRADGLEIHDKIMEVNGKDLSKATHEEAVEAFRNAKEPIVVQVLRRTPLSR
Chain of GRIP2_6, Q9C0E4 (Q9C0E4 648-740): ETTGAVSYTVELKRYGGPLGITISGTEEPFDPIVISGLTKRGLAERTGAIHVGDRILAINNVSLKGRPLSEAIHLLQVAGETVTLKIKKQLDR

pKd [1] | pKd [2] | pKd [3] | pKd [4] | pKd [5] | pKd [6] | pKd [7] | pKd [8] | pKd [9] | pKd [10] | pKd [11] | pKd [12] | pKd [13] | pKd [14] | pKd [15] | pKd [16] | pKd [17] | pKd [18] | pKd [19] | pKd [20] | further results | Binder
below the threshold | below the threshold | below the threshold | below the threshold | below the threshold | below the threshold | below the threshold | below the threshold | 4.21 | below the threshold | below the threshold | below the threshold | 3.68 | below the threshold | below the threshold | below the threshold | below the threshold | 3.67 | 5.07 | 3.72 | pKd [21]: 4.53; pKd [22]: below the threshold; pKd [23]: below the threshold; pKd [24]: below the threshold; pKd [25]: 3.57; pKd [26]: 3.55 | LTAQEQPVYI [APBA1, Q02410]
4.95 | below the threshold | below the threshold | below the threshold | below the threshold | 4.35 | below the threshold | 3.84 | 4.21 | below the threshold | below the threshold | below the threshold | below the threshold | below the threshold | below the threshold | 3.66 | 4.11 | 3.71 | 4.6 | below the threshold | pKd [21]: 4.43; pKd [22]: below the threshold; pKd [23]: below the threshold; pKd [24]: below the threshold; pKd [25]: below the threshold; pKd [26]: below the threshold | RTQSSDSAYV [GJD2, Q9UKL4]
4.79 | below the threshold | below the threshold | below the threshold | below the threshold | 4.9 | below the threshold | below the threshold | 3.85 | below the threshold | below the threshold | below the threshold | below the threshold | below the threshold | below the threshold | below the threshold | below the threshold | below the threshold | 4.16 | below the threshold | pKd [21]: 3.94; pKd [22]: below the threshold; pKd [23]: below the threshold; pKd [24]: below the threshold; pKd [25]: below the threshold; pKd [26]: below the threshold | SRPTKGPTLL [PLEKHH2, Q8IVE3]
below the threshold | 3.81 | 4.04 | below the threshold | 4.62 | 4.42 | below the threshold | 4.07 | 4.67 | below the threshold | below the threshold | below the threshold | below the threshold | below the threshold | below the threshold | 4.62 | below the threshold | below the threshold | 4 | below the threshold | pKd [21]: 3.89; pKd [22]: below the threshold; pKd [23]: below the threshold; pKd [24]: below the threshold; pKd [25]: below the threshold; pKd [26]: 3.62 | PLDSQQHTEV [FAT1, Q14517]
